{"source": "the supplement of paper PMC9112550", "about": "“Optimization of the antimicrobial peptide Bac7 by deep mutational scanning” (BMC Biology, 2022);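 note: peptides expressed intracellularly from a pBAD plasmid library in pooled LB shake-flask culture, induced with 0.3% L-arabinose, DNA abundance read by NGS, three biological replicates, DESeq2 with apeglm shrinkage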"}
{"tested_on": "Escherichia coli TOP10", "test": "shrunken log2 fold change of peptide-encoding DNA abundance (4.5 h post-induction vs induction); higher = less antimicrobial activity (less host growth inhibition)", "settings": "time post-induction: 4.5 h; library: site-saturation at positions 5, 18, 19, 20"}
{"sequence": "RRIRQRPPRLPRPRPRPMVAPRP", "shrunken log2 fold change": 0.143}
{"sequence": "RRIRLRPPRLPRPRPRPTIIPRP", "shrunken log2 fold change": 0.0804}
{"sequence": "RRIRLRPPRLPRPRPRPNNTPRP", "shrunken log2 fold change": -0.687}
{"sequence": "RRIRKRPPRLPRPRPRPRNIPRP", "shrunken log2 fold change": -0.116}
{"sequence": "RRIRARPPRLPRPRPRPIVSPRP", "shrunken log2 fold change": 0.0293}
{"sequence": "RRIRERPPRLPRPRPRPRNNPRP", "shrunken log2 fold change": -0.441}
{"sequence": "RRIRSRPPRLPRPRPRPWHNPRP", "shrunken log2 fold change": -0.00544}
{"sequence": "RRIRDRPPRLPRPRPRPFKNPRP", "shrunken log2 fold change": 0.11}
{"sequence": "RRIRLRPPRLPRPRPRPGMVPRP", "shrunken log2 fold change": -0.0517}
{"sequence": "RRIRIRPPRLPRPRPRPFKLPRP", "shrunken log2 fold change": -0.597}
{"sequence": "RRIRKRPPRLPRPRPRPHWWPRP", "shrunken log2 fold change": 0.119}
{"sequence": "RRIRYRPPRLPRPRPRPGDEPRP", "shrunken log2 fold change": -0.0823}
{"sequence": "RRIRFRPPRLPRPRPRPYLYPRP", "shrunken log2 fold change": -0.498}
{"sequence": "RRIRLRPPRLPRPRPRPSVFPRP", "shrunken log2 fold change": -0.364}
{"sequence": "RRIRSRPPRLPRPRPRPTIGPRP", "shrunken log2 fold change": 0.0365}
{"sequence": "RRIRYRPPRLPRPRPRPDENPRP", "shrunken log2 fold change": -0.0185}
{"sequence": "RRIRVRPPRLPRPRPRPRQRPRP", "shrunken log2 fold change": 0.622}
{"sequence": "RRIRERPPRLPRPRPRPSAEPRP", "shrunken log2 fold change": 0.0172}
{"sequence": "RRIRDRPPRLPRPRPRPKSGPRP", "shrunken log2 fold change": 0.0754}
{"sequence": "RRIRVRPPRLPRPRPRPDANPRP", "shrunken log2 fold change": 0.167}
{"sequence": "RRIRYRPPRLPRPRPRPWDVPRP", "shrunken log2 fold change": -0.114}
{"sequence": "RRIRKRPPRLPRPRPRPFCQPRP", "shrunken log2 fold change": 0.212}
{"sequence": "RRIRYRPPRLPRPRPRPFPDPRP", "shrunken log2 fold change": -0.164}
{"sequence": "RRIRPRPPRLPRPRPRPHYQPRP", "shrunken log2 fold change": -0.417}
{"sequence": "RRIRMRPPRLPRPRPRPPSIPRP", "shrunken log2 fold change": 0.411}
{"sequence": "RRIRERPPRLPRPRPRPEDSPRP", "shrunken log2 fold change": 0.00699}
{"sequence": "RRIRIRPPRLPRPRPRPPTAPRP", "shrunken log2 fold change": 0.335}
{"sequence": "RRIRMRPPRLPRPRPRPIYKPRP", "shrunken log2 fold change": -0.0684}
{"sequence": "RRIRIRPPRLPRPRPRPLEHPRP", "shrunken log2 fold change": -0.105}
{"sequence": "RRIRVRPPRLPRPRPRPEAGPRP", "shrunken log2 fold change": 0.553}
{"sequence": "RRIRMRPPRLPRPRPRPMAKPRP", "shrunken log2 fold change": 0.245}
{"sequence": "RRIRKRPPRLPRPRPRPALGPRP", "shrunken log2 fold change": 0.0812}
{"sequence": "RRIRWRPPRLPRPRPRPWWFPRP", "shrunken log2 fold change": 0.0217}
{"sequence": "RRIRPRPPRLPRPRPRPCAVPRP", "shrunken log2 fold change": -0.418}
{"sequence": "RRIRHRPPRLPRPRPRPFKPPRP", "shrunken log2 fold change": -0.163}
{"sequence": "RRIRGRPPRLPRPRPRPMMAPRP", "shrunken log2 fold change": 1.38}
{"sequence": "RRIRKRPPRLPRPRPRPEFPPRP", "shrunken log2 fold change": 0.0804}
{"sequence": "RRIRWRPPRLPRPRPRPIMWPRP", "shrunken log2 fold change": 0.181}
{"sequence": "RRIRYRPPRLPRPRPRPSTSPRP", "shrunken log2 fold change": 1.42}
{"sequence": "RRIRHRPPRLPRPRPRPEYLPRP", "shrunken log2 fold change": 0.0871}
{"sequence": "RRIRCRPPRLPRPRPRPYVSPRP", "shrunken log2 fold change": -0.207}
{"sequence": "RRIRNRPPRLPRPRPRPSAMPRP", "shrunken log2 fold change": -0.188}
{"sequence": "RRIRCRPPRLPRPRPRPHEYPRP", "shrunken log2 fold change": -0.253}
{"sequence": "RRIRTRPPRLPRPRPRPFPYPRP", "shrunken log2 fold change": -0.00797}
{"sequence": "RRIRFRPPRLPRPRPRPWHMPRP", "shrunken log2 fold change": -0.121}
{"sequence": "RRIRCRPPRLPRPRPRPRTKPRP", "shrunken log2 fold change": 0.246}
{"sequence": "RRIRERPPRLPRPRPRPAMHPRP", "shrunken log2 fold change": 0.0193}
{"sequence": "RRIRARPPRLPRPRPRPSLYPRP", "shrunken log2 fold change": 0.0269}
{"sequence": "RRIRRRPPRLPRPRPRPCALPRP", "shrunken log2 fold change": -0.22}
{"sequence": "RRIRGRPPRLPRPRPRPNFTPRP", "shrunken log2 fold change": 0.298}
{"sequence": "RRIRRRPPRLPRPRPRPLYMPRP", "shrunken log2 fold change": -0.15}
{"sequence": "RRIRSRPPRLPRPRPRPDAWPRP", "shrunken log2 fold change": 0.545}
{"sequence": "RRIRERPPRLPRPRPRPCEDPRP", "shrunken log2 fold change": 0.0101}
{"sequence": "RRIRYRPPRLPRPRPRPWASPRP", "shrunken log2 fold change": -0.154}
{"sequence": "RRIRRRPPRLPRPRPRPVCWPRP", "shrunken log2 fold change": 0.586}
{"sequence": "RRIRYRPPRLPRPRPRPQFVPRP", "shrunken log2 fold change": 0.119}
{"sequence": "RRIRIRPPRLPRPRPRPMTIPRP", "shrunken log2 fold change": -1.16}
{"sequence": "RRIRLRPPRLPRPRPRPFSHPRP", "shrunken log2 fold change": -0.262}
{"sequence": "RRIRWRPPRLPRPRPRPVRSPRP", "shrunken log2 fold change": 0.239}
{"sequence": "RRIRLRPPRLPRPRPRPRYIPRP", "shrunken log2 fold change": -0.683}
{"sequence": "RRIRLRPPRLPRPRPRPILEPRP", "shrunken log2 fold change": -0.186}
{"sequence": "RRIRVRPPRLPRPRPRPFNEPRP", "shrunken log2 fold change": -0.258}
{"sequence": "RRIRNRPPRLPRPRPRPQINPRP", "shrunken log2 fold change": -0.181}
{"sequence": "RRIRSRPPRLPRPRPRPTCQPRP", "shrunken log2 fold change": 0.0682}
{"sequence": "RRIRLRPPRLPRPRPRPAINPRP", "shrunken log2 fold change": -0.157}
{"sequence": "RRIRMRPPRLPRPRPRPNACPRP", "shrunken log2 fold change": 0.0451}
{"sequence": "RRIRFRPPRLPRPRPRPREGPRP", "shrunken log2 fold change": 0.285}
{"sequence": "RRIRFRPPRLPRPRPRPACQPRP", "shrunken log2 fold change": -0.0497}
{"sequence": "RRIRDRPPRLPRPRPRPALVPRP", "shrunken log2 fold change": 0.0217}
{"sequence": "RRIRPRPPRLPRPRPRPQMNPRP", "shrunken log2 fold change": -0.267}
{"sequence": "RRIRGRPPRLPRPRPRPPGEPRP", "shrunken log2 fold change": 1.14}
{"sequence": "RRIRRRPPRLPRPRPRPYYWPRP", "shrunken log2 fold change": -0.0449}
{"sequence": "RRIRMRPPRLPRPRPRPRKDPRP", "shrunken log2 fold change": 0.61}
{"sequence": "RRIRIRPPRLPRPRPRPIDEPRP", "shrunken log2 fold change": 0.0184}
{"sequence": "RRIRKRPPRLPRPRPRPRNYPRP", "shrunken log2 fold change": 0.374}
